Assay results as given in article PMC10007213.

What was measured:
[1] = target: Dendrorhynchus zhejiangensis ferritin (DzFer) (Dendrorhynchus zhejiangensis); test: crystal structure; DzFer crystals (0.2 M ammonium sulfate, 0.1 M sodium acetate pH 4.6, 30% PEG MME 2000) soaked 1 min with 100 mM AgNO3; space group I432; 1.90 Å
[2] = target: Dendrorhynchus zhejiangensis ferritin (DzFer) (Dendrorhynchus zhejiangensis); test: crystal structure; Cu^2+-DzFer crystallised (0.2 M sodium citrate, 0.1 M Tris pH 8.5, 30% PEG 400); space group I432; 2.26 Å
[3] = target: Dendrorhynchus zhejiangensis ferritin (DzFer) (Dendrorhynchus zhejiangensis); test: native gel or EMSA; Native-PAGE, 6% gel, 4 °C, Tris-glycine pH 8.3; purified tag-free DzFer, also after incubation and dialysis at pH 4, 6, 8, 10, 12, and as Ag^+-DzFer and Cu^2+-DzFer; subunits to 24-mer cage

Measured: stoichiometry N

Dendrorhynchus zhejiangensis ferritin (DzFer) (natural protein)
24: all assays above
